Results taken from the nanobody polyreactivity screen of Harvey et al. (2022).

assay: yeast display, Sf9 membrane polyspecificity reagent, FACS + sequencing; frameworks hold sequencing errors
In short: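 In a synthetic yeast display library (Saccharomyces cerevisiae BJ5465), nanobody expression was induced with galactose for 36–48 hours. FACS gates were set low and high (top ~1%) using anti-HA fluorescence for expression and streptavidin fluorescence for binding of the Sf9 membrane reagent. Each polyreactivity label is drawn from the gate of origin.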

Sequence | polyreactivity (PSR sort gate)
QVQLVESGGGLVQEGGSLRLICAASGGIFIYNAMGWYRQEPGKEREFVAAINISGGNTYYADSVKGRFTISRDNAKNTVYLQMNSLKPEDTAVYYCAARYASSWWIRYYYWGQGTQVSVSS | high polyreactivity
QVQLVESGGGLVQEGGSLRLICAASGLIFPRYSMGWYRQAPGKERELVAAITRGGSTYYADSVKGRFTISRDNAMNTVYLQMNSLKQEDTAVSYCNAELPVHWSWYVYWGQGTQVTVSS | low polyreactivity
QVQLVESGGGLVQEGGSLRLICAASGLTFFPYAMGWYRQAPGKDRELVAAITTSDGTTYYADSVKGRFTISRDNAKNTVYLQMNSLKPEDTAVYYCAAVYSPRSVWWYDYWGQGTQVTVSS | low polyreactivity
QVQLVESGGGLVQEGGSLRLICAASGRIFAGYAMGWYSQAPGKERELVAAISQDGGSTYYADSVKGRFTISRDNAKNTVYLQMNSLKPEDTAVYYCAAEDPDSWLPWDLFDYWGQGTQVTVSS | low polyreactivity
QVQLVESGGGLVQEGGSLRLICAASGSTFKAYAMGWYRQAPGKERELVAAITNSDGDTYYADSVKGRFTISRDNAKNTVYLQMNSLKPEDRAVYYCNADDALRQTPDYNYWGQGTQVTVSS | low polyreactivity
QVQLVESGGGLVQEGGSLRLSCAASGFIFGYYAMGWYRQAPGKERELVAAISFSDGITYYADSVKGRFTISRDNAKNTVYLQMNSLKPEDTAVYYCATEILDYYYGSEYDYWGQGTQVTVSS | high polyreactivity
QVQLVESGGGLVQEGGSLRLSCAASGFIFHVNAMGWYRQAPGKERELVARITTSGGNTFYADSVKGRFTISRDNAKNTVYLQMNSLKPEDTAVYYCAIRYRYSVGWPVKNSAFGYWGQGTQVTVSS | low polyreactivity
QVQLVESGGGLVQEGGSLRLSCAASGFIFSFYVMGWYRQAPGKERELVAAISTSGASTYYADSVKGRFTISRDNAKNTVYLQMNSLKQEDTAVYYCNVVYRYGGYIYWGQGTQVTVSS | high polyreactivity
QVQLVESGGGLVQEGGSLRLSCAASGFTFYWYAMGWYRQAPGKERELVAAITRSGSSTYYADSVKGRFTISRDNAKNTVYLQMNSLKPEDTEVYYCAALPYKPYYDAYDYWGQGTQVTVSS | high polyreactivity
QVQLVESGGGLVQEGGSLRLSCAASGIIFRVYAMGWYRQAPGKERELVATITYSGGITYYADSVKGRFTISRVNAKNTVYLQMNSLKQEDTAGYYPIGVGGDYDYWGQGTQVSVSS | low polyreactivity
QVQLVESGGGLVQEGGSLRLSCAASGITFPDYAMGWYRQAPGKERELVAAISRGVNTYYADSVKGRFTISRDNAKNTVYLQMNSLKPEDTAVYYCNRRGSSGYDYWGLGTQVTVSS | low polyreactivity
QVQLVESGGGLVQEGGSLRLSCAASGITFTSYTMGWYRQAPGKERELVAAISSGGSTYYADSVKGRFTISRDNAKNTVYLQMNSLKPEDTAVYYCAAISYVFRMYYWGQGTQVTVSS | high polyreactivity
QVQLVESGGGLVQEGGSLRLSCAASGLIFPSYARGWYRPAPGKERELVAGINTGGSTNYADSVKGRFTISRDNAKNTVSLQMNSQKPEDTAVYYCAKDNNYYWYVSPRDYWGLGTQVTVSS | low polyreactivity
QVQLVESGGGLVQEGGSLRLSCAASGLTFYYYAMGWYRPAPGKERELVAAISRSGGSTYYADSVKGRFTISRDNAKITVYLQMNSLIPEDTAVYYCASRDHAGYYKYDYWGQGTQVTVSS | high polyreactivity
QVQLVESGGGLVQEGGSLRLSCAASGNIFTTYAMGWYRQAPGKERELVAAISRSGGRTNYADSVKGRFTISRDNAKNTVYLQMNSLKPEDTAVYYCNRALKPVDSYAYGYWGQGTQVTVSS | high polyreactivity
QVQLVESGGGLVQEGGSLRLSCAASGNMLGTYAMGWYILAPGIEREFVAAISSSVGSTYYADSVKGRFTISRDNAKNSVYLQMNILKPEDTAVYYCAARKYQIYEKWGYLYDYWGQGTQVTVSS | low polyreactivity
QVQLVESGGGLVQEGGSLRLSCAASGRIFRVYTMGWYRQAPGKERELVASITGRGGSTYYADSVKGRFTISRDNAKNTVYLQMNSLKPEDTAVYYCAAQTFRGFSEFDYWGQGTQVTLSS | high polyreactivity
QVQLVESGGGLVQEGGSLRLSCAASGRIFYNYPMGWYRQAPGKEREFVAAISGSGGSTYYADSVKGRFTISRDIAKNTVYLQMKSLKPEDTAVYYCSTSGPQYYSRNFDYWGQGTQVTVSS | low polyreactivity
QVQLVESGGGLVQEGGSLRLSCAASGRIIPSYAMGWYRQAPGKERELVAAISYSGASTYYADSVKGRFTISRDNAKNTVYLLMNCLKPEDTAVYYCATDHDSVRVLVSSTSDYDYWGQGTQVTVSS | low polyreactivity
QVQLVESGGGLVQEGGSLRLSCAASGRISTYYTMGWYRQAPGKERELVAAISWSGTSTYYADSVKGRFTISRDNAKNTVYLQMNSLKPEDTAVYYCNARWRYPLDSVTDDYWGQGTQVTVSS | high polyreactivity
QVQLVESGGGLVQEGGSLRLSCAASGRPFYNAMGWYRPAPGKERELVAGIRWSGASTYYADSVKGRFTISRDNAKNTVYLQMNSLKPEDTAVYYCAARRHSTRLRLTSDYWGHGTQVTVSS | high polyreactivity
QVQLVESGGGLVQEGGSLRLSCAASGRTFGYYAMGWYRQAPGKERELVAAITRNGGRTYYADSVKGRFTISRDNAKNTVYLQMNSLKPEDTAVYYCAKDQYKPEAFYYWGQGTQVTVSS | high polyreactivity

Sequence | polyreactivity (PSR sort gate)
QVQLVESGGGLVQEGGSLRLSCAASGRTFPYTVMGWYRQAPGKERELVAGITGSGDSTFYADSVKGRFTISRDNAKNTVYIQMNSLKPEDTAVYYCAARYRTLNDGYIRIYWGQGTQVTVSS | low polyreactivity
QVQLVESGGGLVQEGGSLRLSCAASGRTFVSNAMGWYRQAPGKERELVAAIRYGGGRTYYADSVKGRFTISRDNAKNTVYLQMNSLKPEVTAVFYCAKRSVGGTGYYWGQGTQVTVSS | high polyreactivity
QVQLVESGGGLVQEGGSLRLSCAASGSIFPLYDMGWYRQAPGKERELVAGISSGGSTNYADSVKGRFTISRDNAKNTVYLQMTSLKPEDTAVYYCAATGSSRYGYWGQGTQVTVSS | low polyreactivity
QVQLVESGGGLVQEGGSLRLSCAASGSIFTLYFMGWYRQAPGKERELVAAITWSGGSTYYADSVKGRFTISRDNAKNTVYLQMNSLKTEVTAVYYCNADVRWDSQDYYYWGQGTQVTVSS | low polyreactivity
QVQLVESGGGLVQEGGSLRLSCAASGSTFFTYAMGWYRQAPGKERELVAAISSSGGSTYYADSVKGRFTISRDNAKNTVYLQMNSLIPEDTAVDYCNAKLYLPYDPTDEYDYWGQGTQVTVSS | low polyreactivity
QVQLVESGGGLVQEGGSLRLSCAASGSTFLTYAMGWYRQAPGKERELVAGITRSGASTYYADSVKGRFTISRDNAKNTVYLQMNSLKTEDTAVYYCAATYISHFHRYYYWGQGTQVTVSS | high polyreactivity
QVQLVESGGGLVQEGGSLRLSCAASGSTFRFYAMGWYRQAPGKERELVAVISFNDGSTYYADSVTGRFTISRDNAKNTVYLQMNSLKPEDSAVYSCATDELDSWWNEYEYWGQGTQVTVSS | low polyreactivity
QVQLVESGGGLVQEGGSLRLSCAASGSTFSRYAMGWYRQAPGKERELVAAISSRGGSTYYADSVKGRFTISRDNAKNNVYLQMNSLKPEDTAVYYCNALTSYQNHVYPYDYWGQGTQVTVSS | high polyreactivity
QVQLVESGGGLVQEGGSLRLSCAASGSTFWVYVMGWYRPAAGKERELVAGISSRGGNTYYADSVKGRFTISRDKAKNSVYLQMNSLKPEDTAVYYCNAPYGGDYESARDYWGQGTQVTVSS | low polyreactivity
QVQLVESGGGLVQEGGSLRLSCAASGSTFYPNAMGWYRQAPGKERELVAAISSSGGSTYYADSVKGRFTISRDNAKNTVYLQMNSLKPEDTAVYYCNKRWFRDYDYWGPGTQVTVSS | high polyreactivity
QVQLVESGGGLVQEGGSLRLSCAASGSTFYWYAMGWYRQAPGKERELVATISNTGRTYYADSVKGRFTISRDNAKNTVYLQMNSLKPEDTAVYDCAAKRSQRWRYDYWGQGTQVTVSS | high polyreactivity
QVQLVESGGGLVQEGGSLRLSCAASGSTSQYNDMGWYRQAPGKERELVAAITNCGSTNYADSVKGRFTISRDNAKNTVYLQMNSLKPEDTAVYSCNADYGQERPGYGYGYWGQGTQVTVSS | low polyreactivity
QVQLVESGGGLVQEGGSLRLSCASSGITFYSNAMGWYRQAPGKERELVATITRGGSTYYADSVKGRFTISRDNAKTTVYLHMNSLKPEDTAVYYCAADYSYRGREYGYWGQGTQVTVSS | low polyreactivity
QVQLVESGGGLVQGGGSLRLSCAASGIIFFNNVMGWYRLAPGKERELVAAITFSGSSTYYADSVKGRFTISRDNAKNTVYLQMNSLKTEDTAVYYCAAYRSGHGIIDYDSWGQGTQVTVSS | low polyreactivity
QVQLVESGGGLVQGGGSLRLSCAASGINFRSYAMGRYRQAPGKERALVAAISWSGGSTYYADSVKGRFTISRDNAKNTVYLQMNSLKPDDTAVYYCAAKVRFSYGRGYDYWGQGTQVTVSS | high polyreactivity
QVQLVESGGGLVQGGGSLRLSCAASGRIFLRNAMGSYRQAPGKERELVATITSRGCSTYYADSVKGRFTISRDNAKNTVYLQMNSLKPEDTAVYYCAAYPEYVSGAWYDYWGQGTQVNVSS | low polyreactivity
QVQLVESGGGLVQGGGSLRLSCAASGRILYSYAMGWYRQAPGKERELVAAISWRGGPTYYADSVKGRFTISRDNAKNTVYLQLNSLKPEDTAVSNCAPEFYDHPWMYDYWGQGTQVTVSS | low polyreactivity
QVQLVESGGGLVQGGGSLRLSCAASGSNLQINAMGWYRQAPGKERELVAANDWGGGDTYYADSVKGRFTISRDNAKNTVYVQMISLKPEDTAVYYCAAEGVTWYLWDFYDIYGYWGQGTQVNVSS | high polyreactivity
QVQLVESGGGLVQGGGSLRLSCADSGRTSDGYPMRWYRQATGKERELVAVITEGGGDTYYADSVKGRFTISRDHSKNTVYLKMNSLKPEDSAVYYCNAVEGSRLTYDYWGQGTQVTVSS | low polyreactivity
QVQLVESGGGLVQPGGSLRISCAASGSTFEYYAMGWYRQAPGKERELVAAITGSGGSTNYADSVKGRFTISRDNAKNTVYLQMNSLKPEDTAVYYCAADVYDAGVRYDYWGQGTQVTVSS | high polyreactivity
QVQLVESGGGLVQPGGSLRLSCAASGFTFYTYAMGWYRQAPGKERELVATISSGGRTNYADSVKGRFTISRDNAKNTVYLQKNSLKPEDTAVYYCNIRLRGGAVRFDSWGQGTQVTVSS | low polyreactivity
